Here are results for one molecule from article PMC8086355, “The unusual structure of the PiggyMac cysteine-rich domain reveals zinc finger diversity in PiggyBac-related transposases”.

The data set has as its target T1, MBP-PgmD401A (Paramecium tetraurelia, UniProt A0DFJ7 1-1065, D401A).
T1 sequence: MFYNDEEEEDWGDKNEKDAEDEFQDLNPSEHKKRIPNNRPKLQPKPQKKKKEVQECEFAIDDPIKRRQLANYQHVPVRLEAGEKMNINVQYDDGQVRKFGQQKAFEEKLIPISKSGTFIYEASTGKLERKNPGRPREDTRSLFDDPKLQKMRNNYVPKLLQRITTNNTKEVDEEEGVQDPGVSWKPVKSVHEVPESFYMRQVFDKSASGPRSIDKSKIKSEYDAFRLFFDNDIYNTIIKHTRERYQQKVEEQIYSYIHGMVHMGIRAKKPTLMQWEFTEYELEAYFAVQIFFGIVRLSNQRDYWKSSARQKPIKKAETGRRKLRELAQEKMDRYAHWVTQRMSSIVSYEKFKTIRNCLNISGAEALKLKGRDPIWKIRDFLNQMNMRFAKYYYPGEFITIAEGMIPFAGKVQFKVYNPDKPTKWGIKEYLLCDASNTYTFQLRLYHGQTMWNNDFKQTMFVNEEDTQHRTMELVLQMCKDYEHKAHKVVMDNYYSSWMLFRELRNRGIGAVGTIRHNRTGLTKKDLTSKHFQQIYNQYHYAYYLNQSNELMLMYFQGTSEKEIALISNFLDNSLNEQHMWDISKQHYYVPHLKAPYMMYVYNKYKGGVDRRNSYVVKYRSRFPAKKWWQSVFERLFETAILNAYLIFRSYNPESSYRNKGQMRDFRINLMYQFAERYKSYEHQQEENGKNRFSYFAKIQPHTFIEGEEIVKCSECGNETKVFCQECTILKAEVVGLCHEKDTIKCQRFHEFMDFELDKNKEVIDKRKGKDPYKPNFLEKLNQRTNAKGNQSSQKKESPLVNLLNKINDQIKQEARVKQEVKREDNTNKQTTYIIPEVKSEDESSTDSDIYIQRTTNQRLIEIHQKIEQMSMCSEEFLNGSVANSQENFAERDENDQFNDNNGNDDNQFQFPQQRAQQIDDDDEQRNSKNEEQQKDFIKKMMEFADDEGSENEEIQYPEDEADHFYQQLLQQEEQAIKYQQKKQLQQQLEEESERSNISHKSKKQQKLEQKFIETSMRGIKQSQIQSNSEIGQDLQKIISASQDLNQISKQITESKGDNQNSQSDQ
In words: DRaCALA; 400 nM protein; DRaCALA: 25 mM HEPES pH 7.5, 0.1 mg/ml BSA, 0.5 mM DTT, 100 mM NaCl, 25 nM DNA, no competitor, temperature not stated; EMSA: as in earlier paper, 5% acrylamide. The note with it: protein: recombinant; tags: N-terminal MBP; label: 32P at 5' end of top strand.

B1: IES 51A1835 80-bp substrate (dsDNA)
DNA 1: ACTACTACATAATGCTAAACTCATTTATAGATGGATTGTTTTCCAAGTATCTATATCATCATGTGTTGCTAATAACCCTG
DNA 2: ATCGCAGGGTTATTAGCAACACATGATGATATAGATACTTGGAAAACAATCCATCTATAAATGAGTTTAGCATTATGTAGT
In the case of B1, the binding result was “binds”.
